In article PMC5760697, “Loss of the Mitochondrial Fatty Acid β-Oxidation Protein Medium-Chain Acyl-Coenzyme A Dehydrogenase Disrupts Oxidative Phosphorylation Protein Complex Stability and Function” (Scientific Reports, 2018):
Values belong to the molecule of their own block, whether it stands above or below them.

How the values were obtained:
[1] = target: OXPHOS complex III dimer (human (endogenous in fibroblasts, 143B and HepG2)) (UniProt P00156); assay: native gel or EMSA; BN-PAGE and Western blot of isolated mitochondria (fibroblasts, 143B cells) solubilised in 1% (v/v) Triton X-100; anti-UQCRC1 antibody
[2] = target: OXPHOS complex III dimer (human (endogenous in fibroblasts, 143B and HepG2)) (UniProt P00156); assay: native gel or EMSA; mtDNA-encoded proteins radiolabeled with [35S]-methionine/cysteine in 143B cells in the presence of cycloheximide, 2 h pulse, chase 0, 3 or 24 h; mitochondria isolated, BN-PAGE or 2D native-PAGE
[3] = target: the molecule itself; assay: native gel or EMSA; BN-PAGE and Western blot of isolated mitochondria (fibroblasts, 143B cells) solubilised in 1% (w/v) digitonin; anti-MCAD or anti-NDUFA9 antibody
[4] = target: the molecule itself; assay: native gel or EMSA; 35S-labelled in vitro translated protein incubated at 37 °C with freshly isolated 143B mitochondria (5 to 60 min), mitochondria solubilised in 1% (v/v) TX-100 or 1% (w/v) digitonin, BN-PAGE

stoichiometry N [1]: 2
Molecule: OXPHOS complex III dimer (from UniProt P00156 1-380; P31930 35-480; P22695 15-453)
stoichiometry N [2]: 2

B1: Medium-chain acyl-Coenzyme A dehydrogenase (enzyme, human (endogenous in 143B and HepG2), UniProt P11310 26-421, looked up)
chain: KANRQREPGLGFSFEFTEQQKEFQATARKFAREEIIPVAAEYDKTGEYPVPLIRRAWELGLMNTHIPENCGGLGLGTFDACLISEELAYGCTGVQTAIEGNSLGQMPIIIAGNDQQKKKYLGRMTEEPLMCAYCVTEPGAGSDVAGIKTKAEKKGDEYIINGQKMWITNGGKANWYFLLARSDPDPKAPANKAFTGFIVEADTPGIQIGRKELNMGQRCSDTRGIVFEDVKVPKENVLIGDGAGFKVAMGAFDKTRPVVAAGAVGLAQRALDEATKYALERKTFGKLLVEHQAISFMLAEMAMKVELARMSYQRAAWEVDSGRRNTYYASIAKAFAGDIANQLATDAVQILGGNGFNTEYPVEKLMRDAKIYQIYEGTSQIQRLIVAREHIDKYKN
notes: Medium-chain acyl-CoA dehydrogenase (MCAD, EC 1.3.8.7); 421 amino acid precursor, processed in the mitochondrial matrix into a mature 396 amino acid (43.6 kDa) protein; also called MCAD; Medium-chain acyl-CoA dehydrogenase; source: endogenous, mitochondria isolated from 143B cells or HepG2 cells, solubilised in detergent
stoichiometry N [3]: 4

B2: Medium-chain acyl-Coenzyme A dehydrogenase (enzyme, UniProt P11310 26-421, looked up)
chain: B1 chain
modifications: [35S]-methionine/cysteine
notes: MCAD cDNA translated as the precursor; after import a proteinase K resistant mature form is seen; 421 amino acid precursor, mature 396 amino acids; Imported into mitochondria that hold endogenous MCAD, so the labelled ~175 kDa tetramer may be mixed with endogenous chains; also called MCAD; radiolabeled MCAD; source: in vitro translated (pGEM4Z, TnT Coupled Reticulocyte Lysate System), imported …
stoichiometry N [4]: 4
